Assay [1] has as its target T1, TACI on TACI+ expressing IM9 cell line (UniProt O14836 1-293, limits assumed).
T1 construct: whole, on cells; also called TACI+IM9 cells; TACI+ in IM9 cells
T1 sequence (looked up): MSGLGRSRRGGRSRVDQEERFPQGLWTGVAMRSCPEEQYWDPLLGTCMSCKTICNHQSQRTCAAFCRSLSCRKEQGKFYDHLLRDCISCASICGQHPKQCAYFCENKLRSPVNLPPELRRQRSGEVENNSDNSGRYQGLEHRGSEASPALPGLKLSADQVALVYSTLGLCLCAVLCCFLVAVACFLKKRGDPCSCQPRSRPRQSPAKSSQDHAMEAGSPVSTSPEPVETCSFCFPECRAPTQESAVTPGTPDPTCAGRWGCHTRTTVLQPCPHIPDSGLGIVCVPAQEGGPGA
Briefly: FACS on TACI+IM9 cells, 1 to 50 ng/mL ligand.

In assay [2] the target is T1, TACI on TACI+ expressing IM9 cell line. As to the kind of experiment: FACS on TACI+IM9 cells, 1 to 50 ng/mL ligand; the filing calls a major component of this binding nonspecific.

B1: FLAG-tagged truncated human APRIL ligand polypeptide (amino acids 115-250 of SEQ ID NO: 6) (ligand, not shown: small tags and cut ends)
chain: HSVLHLVPINATSKDDSDVTEVMWQPALRRGRGLQAQGYGVRIQDAGVYLLYSQVLFQDVTFTMGQVVSREGQGRQETLFRCIRSMPSHPDRAYNSCYSAGVFHLHQGDILSVIIPRARAKLNLSPHGTFLGFVKL
notes: Expressed in 293T cells; Tested both purified (anti-FLAG M1, SP Sepharose, Superdex 200) and unpurified in cell medium (SN); also called FLAGhuAPRIL purified; FLAGhuAPRIL SN
Regarding B1, the binding result in assay [1] was “binds”.

B2: truncated human APRIL ligand polypeptide encoded by amino acid residues 105-250 of SEQ ID NO: 6 (ligand, not shown: small tags and cut ends)
chain: AVLTQKQKKQHSVLHLVPINATSKDDSDVTEVMWQPALRRGRGLQAQGYGVRIQDAGVYLLYSQVLFQDVTFTMGQVVSREGQGRQETLFRCIRSMPSHPDRAYNSCYSAGVFHLHQGDILSVIIPRARAKLNLSPHGTFLGFVKL
notes: also called longer truncate of human APRIL ligand polypeptide
As for B2, in assay [2], the binding result is given as “binds”.
